Assay results taken from publication PMC5433843, “Protein Phosphatase 1 inactivates Mps1 to ensure efficient Spindle Assembly Checkpoint silencing” (eLife, 2017).

Target: T1, MBP-PP1-87B (Drosophila, UniProt P12982 1-302)
T1 construct: Drosophila PP1-87B (orthologue of PP1-gamma); also called MBP-87B; Protein Phosphatase 1; source: E. coli BL21-star, purified with amylose magnetic beads
Test: pull-down; purified 6xHis-N-Mps1 fragments incubated with MBP or MBP-PP1-87B bound to amylose magnetic beads; column buffer 250 mM NaCl, 20 mM Tris-HCl pH 7.4, 1 mM EDTA, 1 mM DTT; 60 min, room temperature; western blot
Settings: both partners purified

T1 sequence (P12982 whole entry): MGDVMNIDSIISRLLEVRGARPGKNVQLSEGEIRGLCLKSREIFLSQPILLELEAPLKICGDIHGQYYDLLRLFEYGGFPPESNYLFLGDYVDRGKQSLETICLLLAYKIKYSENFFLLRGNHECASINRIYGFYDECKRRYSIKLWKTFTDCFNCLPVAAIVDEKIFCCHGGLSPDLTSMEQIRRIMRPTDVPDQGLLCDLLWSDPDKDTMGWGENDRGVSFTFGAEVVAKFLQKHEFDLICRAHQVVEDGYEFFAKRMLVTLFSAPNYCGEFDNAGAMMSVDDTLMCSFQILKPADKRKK

binding result: binds
B1: 6xHis-N-Mps1^WT (domain or fragment, Drosophila, UniProt Q9VEH1 104-330, looked up)
chain: PSQELTNSNSNITTRRTPSAAPLKQSDSNLSFLGRFNDMGINCSSQGSPVANSEKQVAKKTAPTLQAAPSATERRPLQETETPLRNELPSTSKTKPDADFITPQVRTIGSTLAGKSRSAVSNDFRAQKVLFQTPMTVSRAAPVASDSISFSLCDTITESPDIPEPPKKAEPPKSQHPSKKSLDHVFRESDKDNVPDKVDNVEPKELVSIPAVAVPPEQPSHKTSNIL
notes: Drosophila Mps1, N-terminus 104-330 amino acids, cloned into KpnI/XhoI sites of pET30a(+); pET30a(+) may add further vector-coded residues (S-tag) besides the His tag; also called Mps1 N-terminus region (104-330 amino acids); source: E. coli BL21-star, purified with Novex Dynabeads, eluted with imidazole
